As usually defined, the Kd is the free concentration of one partner at which half of the binding sites on the other are occupied at equilibrium, for simple one-to-one binding. A low value points to tighter binding.

This note sets out measurements from patent publication US20240360208A1 (Hoffmann-La Roche, published 2024).

In test [1] the target is T1, human CCL2 (MCP1) - wild type (wt) (human, UniProt P13500 24-99). Briefly: cell-based or functional assay.
Test [2] deals with T2, human FcγRIIb receptor on CHO-K1 cells (clone 223) (human, UniProt P31994 43-310).
T2 sequence (looked up): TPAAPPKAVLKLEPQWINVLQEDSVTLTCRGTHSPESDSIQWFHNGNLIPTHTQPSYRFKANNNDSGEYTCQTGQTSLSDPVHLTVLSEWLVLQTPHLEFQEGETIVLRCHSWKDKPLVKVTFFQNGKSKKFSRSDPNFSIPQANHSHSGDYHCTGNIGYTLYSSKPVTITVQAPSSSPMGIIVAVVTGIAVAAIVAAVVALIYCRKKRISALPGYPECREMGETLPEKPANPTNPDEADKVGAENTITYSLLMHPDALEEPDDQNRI
Kind of test: cell-based or functional assay.

The target of test [3] is T1, human CCL2 (MCP1) - wild type (wt). Kind of test: cell-based or functional assay. This is another data set of the same source.
For test [4], the target named is T3, human CCL2 (MCP1) - P8A variant (human, UniProt P13500 24-99).
T3 construct: In-house point mutant that cannot dimerise; also called monomeric human CCL2; monomeric CCL2
Kind of test: SPR T200, 37 C, antibody captured, 1:1 model. As to the method:
(§1) Antibody clone supernatants were diluted 1:2 in system buffer and were captured for 1 min at 5 μl/min. […] Analyte kinetics were performed at 30 μl/min. As analyte in solution wt human CCL2 or monomeric CCL2 P8A variant CCL2 were used. Analytes were injected at 90 nM highest concentration. The analyte contact time was 3 min and the dissociation time was 10 min. The Biaevaluation software V.3.0 was used according to the instructions of the manufacturer GEHC. A 1:1 binding model with RMAX local was applied to apparently estimate kinetic rates.

Test [5] has as its target T1, human CCL2 (MCP1) - wild type (wt). Kind of test: SPR T200, 37 C, antibody captured, 1:1 model. As to the method: as §1
The target in test [6] is T3, human CCL2 (MCP1) - P8A variant. Briefly: number printed over the column of sensorgrams; the assay and the CCL2 form behind the number are not stated on the sheet (the sensorgrams are on monomeric CCL2).
Test [7] addresses T1, human CCL2 (MCP1) - wild type (wt). Kind of test: SPR, C1 chip, anti-human Fc capture, 25 C, pH 7.4, Langmuir 1:1. Here is the method: The sample and system buffer was PBS-T (10 mM phosphate buffered saline including 0.05% Tween20) pH 7.4. The flow cell was set to 25° C.—and the sample block set to 12° C.—and primed with running buffer twice. The bispecific antibody was captured by injecting a 2 μg/ml solution for 60 see at a flow rate of 10 μl/min. Association was measured by injection of human CCL2 (wt) in various concentrations in solution for 150 see at a flow rate of 30 μl/min starting with 30 nM in 1:10 dilutions. The dissociation phase was monitored for up to 1200 sec and triggered by switching from the sample solution to running buffer. […] Bulk refractive index differences were corrected by subtracting the response obtained from a goat anti human IgG Fc surface. Blank injections are also subtracted (=double referencing). For calculation of kinetic parameters, the Langmuir 1:1 model was used.

B1: CKLO2-IgG1 (bispecific antibody)
heavy 1: not shown
heavy 2: not shown
light 1: QVQLVQSGAEVKKPGSSVKVSCKASGLTISHTYMHWVRQAPGQGLEWMGRIDPDNHNTKFDPKFQGRVTITADTSTSTAYMELSSLRSEDTAVYYCARGVFGFFEHWGQGTTVTVSSASVAAPSVFIFPPSDEQLKSGTASVVCLLNNFYPREAKVQWKVDNALQSGNSQESVTEQDSKDSTYSLSSTLTLSKADYEKHKVYACEVTHQGLSSPVTKSFNRGEC
light 2: EIVLTQSPATLSLSPGERATLSCRASQHVSDAYLAWYQQKPGQAPRLLIYDASDRAEGVPARFSGSGSGTDFTLTISSLEPEDFAVYYCHQYIHLHSFTFGQGTKVEIKRTVAAPSVFIFPPSDRKLKSGTASVVCLLNNFYPREAKVQWKVDNALQSGNSQESVTEQDSKDSTYSLSSTLTLSKADYEKHKVYACEVTHQGLSSPVTKSFNRGEC
With B1, the “IC50, inhibition of THP-1 migration (chemotaxis assay)” value (“IC50, inhibition of THP-1 migration” below) in test [1] stood at 0.2 µg/mL.

B2: CKLO2-GG01 (=P1AF8137) (bispecific antibody)
heavy 1: DIQMTQSPSSLSASVGDRVTITCKAFEDIYNRRAWYQQKPGKAPKLLIHGATSLEHGVPSRFSGSGSGTDYTLTISSLQPEDFATYYCQQFWSAPYTFGGGTKVEIKSSASTKGPSVFPLAPSSKSTSGGTAALGCLVKDYFPEPVTVSWNSGALTSGVHTFPAVLQSSGLYSLSSVVTVPSSSLGTQTYICNVNHKPSNTKVDKKVEPKSCDKTHTCPPCPAPEYLGGDSVFLFPPKPKDVLMISRTPEVTCVVIDVSHEDPEVKFNWYVDGVEVHNAKTKPREEQYNSTYRVVSVLPVLHRDWLNGKEYKCKVSNKALPKPIEKTISKAKGQRREPQVYTLPPCRDELTKNQVSLWCLVKGFYPSDIAVEWESNGQPENNYKTTPPVLDSDGSFFLYSKLTVDKSRWQQGNVFSCSVMHEALHAHYTRKELSLSP
heavy 2: not shown
light 1: QVQLVQSGAEVKKPGSSVKVSCKASGLTISHTYMHWVRQAPGQGLEWMGRIDPDNHNTKFDPKFQGRVTITADTSTSTAYMELSSLRSEDTAVYYCARGVFGFFEHWGQGTTVTVSSASVAAPSVFIFPPSDEQLKSGTASVVCLLNNFYPREAKVQWKVDNALQSGNSQESVTEQDSKDSTYSLSSTLTLSKADYEKHKVYACEVTHQGLSSPVTKSFNRGEC
light 2: EIVLTQSPATLSLSPGERATLSCRASQHVSDAYLAWYQQKPGQAPRLLIYDASDRAEGVPARFSGSGSGTDFTLTISSLEPEDFAVYYCHQYIHLHSFTFGQGTKVEIKRTVAAPSVFIFPPSDRKLKSGTASVVCLLNNFYPREAKVQWKVDNALQSGNSQESVTEQDSKDSTYSLSSTLTLSKADYEKHKVYACEVTHQGLSSPVTKSFNRGEC
For the molecule B2, the “IC50, inhibition of THP-1 migration” value in test [1] was found to be 0.2 µg/mL.

B3: CKLO2-SG1095 (=P1AD8325) (bispecific antibody)
heavy 1: DIQMTQSPSSLSASVGDRVTITCKAFEDIYNRRAWYQQKPGKAPKLLIHGATSLEHGVPSRFSGSGSGTDYTLTISSLQPEDFATYYCQQFWSAPYTFGGGTKVEIKSSASTKGPSVFPLAPSSKSTSGGTAALGCLVKDYFPEPVTVSWNSGALTSGVHTFPAVLQSSGLYSLSSVVTVPSSSLGTQTYICNVNHKPSNTKVDKKVEPKSCDKTHTCPPCPAPELWNGPSVFLFPPKPKDTLMISRTPEVTCVVVDVSDEDPEVKFNWYVDGVEVHNAKTKPREELYNSTYRVVSVLTVLHRDWLNGKEYKCKVSNTALPKPIEKTISKAKGQRREPQVYTLPPCRDELTKNQVSLWCLVKGFYPSDIAVEWESNGQPENNYKTTPPVLDSDGSFFLYSKLTVDKSRWQQGNVFSCSVMHEALHAHYTRKELSLSP
heavy 2: not shown
light 1: QVQLVQSGAEVKKPGSSVKVSCKASGLTISHTYMHWVRQAPGQGLEWMGRIDPDNHNTKFDPKFQGRVTITADTSTSTAYMELSSLRSEDTAVYYCARGVFGFFEHWGQGTTVTVSSASVAAPSVFIFPPSDEQLKSGTASVVCLLNNFYPREAKVQWKVDNALQSGNSQESVTEQDSKDSTYSLSSTLTLSKADYEKHKVYACEVTHQGLSSPVTKSFNRGEC
light 2: EIVLTQSPATLSLSPGERATLSCRASQHVSDAYLAWYQQKPGQAPRLLIYDASDRAEGVPARFSGSGSGTDFTLTISSLEPEDFAVYYCHQYIHLHSFTFGQGTKVEIKRTVAAPSVFIFPPSDRKLKSGTASVVCLLNNFYPREAKVQWKVDNALQSGNSQESVTEQDSKDSTYSLSSTLTLSKADYEKHKVYACEVTHQGLSSPVTKSFNRGEC
For the molecule B3, the “IC50, inhibition of THP-1 migration” value in test [1] is 0.2 µg/mL. In addition, in test [2], the “Depletion level max (%) of CCL2 from the supernatant” value came to 85% and the “EC50 [nM] of CCL2 depletion” value amounted to 0.5 nM.

B4: murine 11K2 (antibody, V domains shown)
VH: EVQLQQSGAELVKAGASVKLSCPASGLNIKDTYMHWVKQRPEQGLEWIGRIDPANGNTKFDPKFQGKATITADTSSNTAYLQLSSLTSEDTAVYYCARGVFGFFDYWGQGTTLTVSS
VL: DIQMTQSSSSFSVSLGDRVTITCKATEDIYNRLAWYQQKPGSAPRLLISGATSLETGVPSRFSGSGSGKDYTLSITSLQTEDVATYYCQQFWSAPYTFGGGTKLEIK
notes: also called 11K2m; X-0048
Regarding B4, the “THP1 chemotaxis [fold change compared to IgG control]” value in test [3] stood at 6.9 fold. For the same molecule, the Kd in test [4] was 0.011 nM; in test [5], 0.35 nM. Further, the “T1/2” value in test [4] turned out to be 8.63 h; in test [5], 0.317 h.

B5: 11K2H1503/11K2L1338 (antibody, V domains shown)
VH: QVQLVQSGAEVKKPGSSVKVSCKASGLTISHTYMHWVRQAPGQGLEWMGRIDPDNHNTKFDPKFQGRVTITADTSTSTAYMELSSLRSEDTAVYYCARGVFGFFDHWGQGTTVTVSS
VL: DIQMTQSPSSLSASVGDRVTITCKAFEDIYNRRAWYQQKPGKAPKLLIHGATSLEHGVPSRFSGSGSGTDYTLTISSLQPEDFATYYCQQFWSAPYTFGGGTKVEIK
notes: also called modified 11K2 variant (VH H1503 / VL L1338)
Consider B5, for which the “Affinity relative to parent 11K2” value in test [6] was determined as 0.2.

B6: 11K2//1G9-PGLALA (bispecific antibody, V domains shown)
VH 1: QVQLVQSGAEVKKPGSSVKVSCKASGLTISDTYMHWVRQAPGQGLEWMGRIDPANGNTKFDPKFQGRVTITADTSTSTAYMELSSLRSEDTAVYYCARGVFGFFDYWGQGTTVTVSS
VL 1: DIQMTQSPSSLSASVGDRVTITCKATEDIYNRLAWYQQKPGKAPKLLISGATSLETGVPSRFSGSGSGTDYTLTISSLQPEDFATYYCQQFWSAPYTFGGGTKVEIK
VH 2: QSLEESGGDLVKPGASLTLTCKASGIDFSLYSYMCWVRQAPGKGLEWIACVDAGASGSTYYASWAKGRFTISKTSSTTVTLQMTSLTAADTATYFCARGILYYTWPYPAGAIDAFDSWGPGTLVTVSS
VL 2: AYDMTQTPASVSEPVGGTVTIKCQASESISNYLSWYQQKPGQPPKLLIYKASTLASGVPSRFKGSGSGTEYTVTISGVQSDDAATYYCQQSYSSSNVFNTFGGGTEVVVK
notes: CrossMab, IgG1 with L234A, L235A, P329G, knobs-into-holes; crossed arm humanized 11K2, non-crossed arm 1G9; also called CCL2-0043; P1AA3463
For the molecule B6, in test [7], the binding result was “binds”.

B7: 11K2H1503/11K2L1201 (antibody, V domains shown)
VH: QVQLVQSGAEVKKPGSSVKVSCKASGLTISHTYMHWVRQAPGQGLEWMGRIDPDNHNTKFDPKFQGRVTITADTSTSTAYMELSSLRSEDTAVYYCARGVFGFFDHWGQGTTVTVSS
VL: DIQMTQSPSSLSASVGDRVTITCKATEDIYNRLAWYQQKPGKAPKLLIHGATSLEHGVPSRFSGSGSGTDYTLTISSLQPEDFATYYCQQFRSAPYTFGGGTKVEIK
notes: also called modified 11K2 variant (VH H1503 / VL L1201)
Take B7: the “Affinity relative to parent 11K2” value in test [6] was 0.05.

B8: 2F6 (antibody, IgG1, V domains shown)
VH: QSLEESGGGLVQPEGSLTLTCTASGFSFNNNYYMCWVRQAPGKGLEWIGCISTDDSNTHYASWAQGRFTISKASSTALTLQVAGLTVADMATYFCARDAHFTSYGYGFDLWGPGTLVTVSS
VL: DIVMTQTPASVSAAVGGTVSINCRASEDIENLVAWYQQKPGQPPKLLIYQASKLASGVPSRFKGSGSGAEFTLTIGDLESADAATYYCQGDYGSGWIMYSFGGGTDLVVK
notes: also called CCL2-0014
As to B8, the “THP1 chemotaxis [fold change compared to IgG control]” value in test [3] was 6.7 fold. For the same molecule, in test [4], the affinity, expressed as Kd, was 0.091 nM and the “T1/2” value was 0.783 h. For the same molecule, in test [5], binding was characterised by a dissociation constant (Kd) of 0.059 nM and the “T1/2” value was found to be 0.867 h.

B9: 1A4 (antibody, V domains shown)
VH: QSLEESGGDLVKPGASLTLTCTASELDFYWICWVRQAPGKGLEWIACIGAGSSGSTYYASWAKGRFTVSKTSSTTVTLQMTSLTAADTATYFCARTGTEFTYYSLWGPGTLVTVSS
VL: ALVMTQTPSSVSAAVGGTVTINCQASQSVYNNNMAWYQQKPGQPPKLLIYTASSLASGVPSHFRGSGSGTQFTLTISDLESDDAATYYCAGYKSYSNDEYGFGGGTEVVVK
notes: which format stood in each assay is not always stated; also called CCL2-0008
With B9, the “THP1 chemotaxis [fold change compared to IgG control]” value in test [3] came to 4.5 fold. In addition, in test [4], the equilibrium dissociation constant (Kd) is 0.059 nM and the “T1/2” value came to 2.9 h. Besides, in test [5], the affinity, expressed as Kd, was 0.073 nM and the “T1/2” value amounted to 1.67 h.
